Test results taken from paper PMC4380367.

How the values were obtained:
[1] = biological target: Msf 1-203 KIK66-68AIA (Neisseria meningitidis strain H44/76); assay: ELISA; Msf constructs (or control protein) coated at 3 μM in carbonate buffer pH 9.6; aVn 74 nM in PBS overlaid 1 h at RT; bound aVn detected with rabbit polyclonal anti-vitronectin
[2] = biological target: Msf 1-203 K60A (Neisseria meningitidis strain H44/76); assay: SDS-PAGE of unheated samples with Western blot; purified recombinant Msf proteins not heated before SDS-PAGE; detected with anti-Msf polyclonal antibody; bands near the trimeric molecular weight
[3] = biological target: Msf 1-203 KIK66-68AIA (Neisseria meningitidis strain H44/76); assay: as above
[4] = biological target: Msf 1-203 KK79-80AA (Neisseria meningitidis strain H44/76); assay: as above
[5] = biological target: Recombinant Msf 1-422 construct lacking amino acids 4-82 (Neisseria meningitidis strain H44/76); assay: as above
[6] = biological target: Human vitronectin in its unfolded, activated form (human); assay: ELISA; aVn coated at 74 nM; Msf constructs overlaid at 3 μM; bound Msf detected with rabbit anti-Msf polyclonal antiserum
[7] = biological target: Recombinant Msf fragment Msf 1-86 (strain H44/76) (Neisseria meningitidis strain H44/76); assay: SEC; HiLoad 16/60 Superdex 200 in 50 mM Tris pH 8, 200 mM NaCl; mass from peak elution volume against protein standards
[8] = biological target: Recombinant Msf fragment Msf 1-203 (strain H44/76) (Neisseria meningitidis strain H44/76); assay: as above
[9] = biological target: Recombinant Msf fragment Msf 1-422 (strain H44/76) (Neisseria meningitidis strain H44/76); assay: as above
[10] = biological target: Recombinant Msf fragment Msf 197-422 (strain H44/76) (Neisseria meningitidis strain H44/76); assay: SDS-PAGE of unheated samples with Western blot; purified recombinant Msf proteins not heated before SDS-PAGE; detected with anti-Msf polyclonal antibody; bands near the trimeric molecular weight

Substance: Human vitronectin in its unfolded, activated form (natural protein)
- reduction in Vn binding against Msf 1-203 [1]: 45%

Substance: Msf 1-203 K60A (domain or fragment)
- stoichiometry N [2]: 3

Substance: Msf 1-203 KIK66-68AIA (domain or fragment)
- stoichiometry N [3]: 3

Substance: Msf 1-203 KK79-80AA (domain or fragment)
- stoichiometry N [4]: 3

Substance: Recombinant Msf 1-422 construct lacking amino acids 4-82 (domain or fragment)
- stoichiometry N [5]: 3
- fold reduction of binding against Msf 1-422 [6]: 4 fold

Substance: Recombinant Msf fragment Msf 1-86 (strain H44/76) (domain or fragment)
- stoichiometry N [7]: 3

Substance: Recombinant Msf fragment Msf 1-203 (strain H44/76) (domain or fragment)
- stoichiometry N [8]: 3

Substance: Recombinant Msf fragment Msf 1-422 (strain H44/76) (domain or fragment)
- stoichiometry N [9]: 3

Substance: Recombinant Msf fragment Msf 197-422 (strain H44/76) (domain or fragment)
- stoichiometry N [10]: 3
- fold lower binding than Msf 1-422 [6]: 6 fold
